The source of these data is article PMC7929502.

The target of the assay is T1, human Derlin-1 (hDERL1), full length, purified from Expi293F cells (human), Q9BUN8.
T1 chain: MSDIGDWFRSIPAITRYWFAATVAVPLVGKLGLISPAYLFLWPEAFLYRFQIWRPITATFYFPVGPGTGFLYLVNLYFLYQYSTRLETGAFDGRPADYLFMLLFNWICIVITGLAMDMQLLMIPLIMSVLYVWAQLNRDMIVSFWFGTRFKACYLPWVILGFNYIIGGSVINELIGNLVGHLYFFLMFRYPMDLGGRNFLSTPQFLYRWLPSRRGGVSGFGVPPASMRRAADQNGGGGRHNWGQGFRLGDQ
Description: cryo-EM structure. As to conditions: remark: other sources report otherwise.

B1: human Derlin-1 (hDERL1), full length, purified from Expi293F cells, Q9BUN8-1 1-251 (natural protein)
chain: MSDIGDWFRSIPAITRYWFAATVAVPLVGKLGLISPAYLFLWPEAFLYRFQIWRPITATFYFPVGPGTGFLYLVNLYFLYQYSTRLETGAFDGRPADYLFMLLFNWICIVITGLAMDMQLLMIPLIMSVLYVWAQLNRDMIVSFWFGTRFKACYLPWVILGFNYIIGGSVINELIGNLVGHLYFFLMFRYPMDLGGRNFLSTPQFLYRWLPSRRGGVSGFGVPPASMRRAADQNGGGGRHNWGQGFRLGDQ
B1 had a stoichiometry N of 4.
